The numbers were not newly measured in publication PMC6232131, which cites them from elsewhere.

A word on the Kd: it is the free concentration of one partner at which half of the binding sites on the other are occupied at equilibrium, for simple one-to-one binding.

The target of this data set is fibrinogen beta (Homo sapiens) (UniProt P02675).
UniProt P02675, sequence (P02675 45-491): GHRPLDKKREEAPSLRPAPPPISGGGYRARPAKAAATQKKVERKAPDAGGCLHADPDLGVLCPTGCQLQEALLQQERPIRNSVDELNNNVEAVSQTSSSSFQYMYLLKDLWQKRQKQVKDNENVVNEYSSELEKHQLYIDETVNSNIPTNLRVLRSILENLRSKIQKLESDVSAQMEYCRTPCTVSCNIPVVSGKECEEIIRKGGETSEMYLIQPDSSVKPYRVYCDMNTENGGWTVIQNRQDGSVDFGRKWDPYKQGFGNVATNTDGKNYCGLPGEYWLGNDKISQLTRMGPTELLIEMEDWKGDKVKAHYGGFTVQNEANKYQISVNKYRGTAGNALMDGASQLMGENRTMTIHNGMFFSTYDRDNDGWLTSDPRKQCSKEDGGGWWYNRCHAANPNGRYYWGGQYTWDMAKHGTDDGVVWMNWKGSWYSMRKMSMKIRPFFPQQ

For the substance SdrG N2N3 (from UniProt Q9KI13), the Kd is 400 nM.
